# Literature values, collected in patent US9040062B2, “Preparation for treatment of spinal cord injury” (SUMITOMO DAINIPPON PHARMA CO., LTD., priority 2010, dated 2015).
# System: cultural neuron
# Details: short time
molecule,measurement,value
"semaphorin 3A: endogenous protein that retracts the nerve growth cone and suppresses axonal growth (protein, UniProt Q14563 21-771, looked up) Semaphorin-3A: NYQNGKNNVPRLKLSYKEMLESNNVITFNGLANSSSYHTFLLDEERSRLYVGAKDHIFSFDLVNIKDFQKIVWPVSYTRRDECKWAGKDILKECANFIKVLKAYNQTHLYACGTGAFHPICTYIEIGHHPEDNIFKLENSHFENGRGKSPYDPKLLTASLLIDGELYSGTAADFMGRDFAIFRTLGHHHPIRTEQHDSRWLNDPKFISAHLISESDNPEDDKVYFFFRENAIDGEHSGKATHARIGQICKNDFGGHRSLVNKWTTFLKARLICSVPGPNGIDTHFDELQDVFLMNFKDPKNPVVYGVFTTSSNIFKGSAVCMYSMSDVRRVFLGPYAHRDGPNYQWVPYQGRVPYPRPGTCPSKTFGGFDSTKDLPDDVITFARSHPAMYNPVFPMNNRPIVIKTDVNYQFTQIVVDRVDAEDGQYDVMFIGTDVGTVLKVVSIPKETWYDLEEVLLEEMTVFREPTAISAMELSTKQQQLYIGSTAGVAQLPLHRCDIYGKACAECCLARDPYCAWDGSACSRYFPTAKRRTRRQDIRNGDPLTHCSDLHHDNHHGHSPEERIIYGVENSSTFLECSPKSQRALVYWQFQRRNEERKEEIRVDDHIIRTDQGLLLRSLQQKDSGNYLCHAVEHGFIQTLLKVTLEVIDTEHLEELLHKDDDGDGSKTKEMSNSMTPSQKVWYRDFMQLINHPNLNTMDEFCEQVWKRDRKQRRQRPGHTPGNSNKWKHLQENKKGRNRRTHEFERAPRSV",concentration inducing growth cone retraction,10 pM
